In the supplement of paper PMC10567573:

B1: C2orf65 (parent)
chain: QLDWDELETNQQHFHALCHSLLVS

Variants of: B1
Assay: protein stability index of a GFP-peptide fusion (GPS, HEK-293T) (PSI 1-6); higher = more stable
Details: c terminus: a fixed tail appended
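Note: lentivirally expressed fusions sorted by FACS into six bins by GFP to DsRed ratio, PSI derived from sequencing read proportions per bin multiplied by bin number.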

Protein stability index, by site and new letter:
N10: R 2.81 | S 2.2 | I 2.19 | C 1.76 | D 2.87 | W 2.25 | T 1.55 | F 1.69 | H 2.17 | E 2.33 | G 2.82 | Q 2.07 | L 1 | K 2 | A 2.04 | P 2.31 | Y 1.99 | V 1.62 | M 2.18
E6: P 2.5 | Q 1.84 | S 1.66 | Y 1.44 | W 2.55 | T 1.82 | V 2.32 | R 1.96
Q12: S 2.62 | L 1.67 | D 2.37 | R 2.37 | I 2.55 | F 1.45 | C 2.06 | E 2.43 | W 2.6 | K 1.84 | N 2.1 | Y 1.48 | P 2.73 | T 2.13 | H 1.92 | M 1.83 | G 2.69 | V 2.17 | A 1.84
L22: F 2.21 | P 3.16 | C 2.58 | W 1.64 | R 2.96 | E 3.38 | Q 2.81 | K 2.37 | A 3.29 | H 2.69 | D 3.77 | N 2.69 | S 2.58 | M 3.01 | I 2.95 | T 3.08 | V 2.34 | Y 2.44
S24: D 3.08 | A 2.11 | E 2.11 | C 2.18
L17: C 2.58 | E 3.69 | R 2.68 | D 4.07 | N 3.12 | W 2.21 | Q 3.02 | V 1.74 | Y 2.05 | F 1.9 | A 2.75 | S 2.58 | I 2.14 | G 2.43 | M 2.38 | K 2.69 | T 3.57 | H 2.6 | P 3.92
Q11: I 1.39 | M 2.39 | F 2.13 | N 2.34 | P 2.02 | W 2.01 | D 2.56 | K 1.97 | H 2.07 | R 2.29 | A 1.66 | C 1.9 | T 2.04 | G 2.62 | Y 1.39 | S 1.79 | V 1.45 | E 2.39 | L 2.23
T9: A 2.71 | M 2.35 | Q 2.75 | H 2.54 | P 1.91 | W 1.81 | C 2.21 | R 1.61 | F 1.8 | K 1.97 | E 2.88 | L 1.52 | I 1.69 | Y 1.84 | V 3.67 | S 2.37 | N 1.56 | D 2.39 | G 2.07
S20: T 1.95 | I 2.13 | Q 2.03 | M 2.27 | V 2.33 | N 2.61 | G 2.21 | K 2.04 | W 1.9 | D 2.98 | F 1.43 | L 2.19 | P 2.33 | E 1.93 | Y 2.05 | R 1.91 | H 2.57 | A 1.79 | C 1.5
C18: P 2.99 | T 2.25 | D 3.62 | G 2.2 | R 2.48 | F 2.27 | L 1.35 | A 2.11 | W 2.14 | I 1.66 | H 2.65 | V 2.21 | Q 2.76 | E 3.64 | N 2.96 | S 2.88 | M 2.11 | Y 2.36 | K 3.2
F14: N 3.19 | G 3.51 | W 2.18 | S 2.91 | T 3.32 | Q 3.42 | D 3.95 | L 2.75 | C 2.46 | R 2.44 | M 2.72 | K 3.26 | A 3.53 | P 2.87 | I 2.48 | H 2.67 | E 3.58 | V 2.79 | Y 2.34
L21: R 3.15 | C 1.61 | T 2.93 | K 2.94 | V 3.04 | D 3.83 | F 2.31 | A 3.23 | M 2.28 | S 3.09 | N 3.01 | Y 2.37 | G 3.04 | E 3.87 | Q 2.91 | H 2.87 | I 2.06 | W 2.22 | P 2.95
H13: R 1.88 | F 2.15 | S 1.98 | K 2.02 | C 2.31 | P 2.63 | V 1.85 | I 1.71 | W 1.55 | A 2.16 | Y 2.5 | T 2.51 | D 2.37 | Q 2.36 | E 2.89 | L 1.99 | N 2.35 | M 1.65 | G 2.39
H15: I 2.36 | C 1.66 | Y 1.82 | F 1.36 | A 1.92 | T 2.28 | M 2.33 | P 2.12 | V 2.39 | Q 1.72 | L 1.61 | G 2.48 | D 2.64 | W 1.74 | N 2.26 | E 2.78 | R 1.71 | S 1.85 | K 2.42
V23: K 2.45 | Y 2.27 | I 1.96 | A 2.68 | R 2.01 | P 2.95 | G 3.26 | T 2.35 | S 2.63 | D 3.38 | W 1.57 | M 1.99 | H 2.36 | N 2.75 | E 2.68 | Q 2.48 | C 2.09 | F 1.69 | L 1.92
E8: C 1.59 | Q 1.89 | P 1.87 | G 1.64 | A 1.57 | I 2.01 | M 2.73 | Y 1.87 | K 1.39 | D 2.11 | S 1.67 | R 1.99 | V 1.21 | N 2.07 | W 2.9 | F 1.57 | H 1.95 | L 2.31 | T 1.61
H19: C 2.21 | L 1.04 | E 2.93 | P 2.65 | Q 2.67 | T 2.02 | V 1.96 | W 1.04 | I 1.79 | S 2.07 | A 1.88 | G 2.17 | F 1.69 | M 1.66 | K 2.15 | N 2.17 | R 1.94 | D 2.94 | Y 1.94
L7: S 2.8 | H 2.18 | R 2.16 | F 2.13 | A 2.33 | P 2.84 | K 2.79 | V 2.36 | Y 2.27 | Q 2.79 | N 2.84 | T 2.16 | G 2.6 | I 1.82 | C 2.5 | D 3.63 | E 3.03 | W 1.33 | M 1.94
A16: V 1.86 | P 2.43 | E 3.07 | W 1.53 | Q 2.27 | F 2.44 | Y 3.02 | R 2.22 | N 1.95 | L 1.63 | M 1.95 | G 2.41 | S 2.33 | T 1.57 | H 2.35 | I 2.2 | K 2.91 | D 2.58 | C 2.31
